Results published in patent US20210024645A1 (HANGZHOU SUMGEN BIOTECH, published 2021).

Biological target: CD38 protein on the surfaces of Raji cells, Daudi cells, Ramos cells and RPMI8226 cells (human, UniProt P28907 1-300)
Experiment: cell-based or functional assay

- ADCC activity, EC50 (Daudi target cells, NK92MI-CD16a effector cells, LDH release): 0.72 ng/mL
- ADCC activity, EC50 (RPMI8226 target cells, NK92MI-CD16a effector cells, LDH release): 1.46 ng/mL
- ADCC activity, EC50 (Raji target cells, NK92MI-CD16a effector cells, LDH release): 6.97 ng/mL
B1: antibody SG003 (antibody, human IgG1, kappa, V domains shown)
VH: QVQLLESGGGLVQPGGSLKLSCVASGFDFSLYWMNWVRQAPGKGLEWIGKINPDSSTINYTPSLKDKFFISRDNAKNTLYLQMTKVRSEDTALYYCARLWIATGGFDYWGQGTTLTVSS
VL: EIVMTQSPASLSASLGQRATISCRASSSVSSSAFSYVHWYQQKSGQPPKLLIYLASNLESGVPARFSGSGSGTDFTLTIHPVESEDVATYYCHHSRELPFTFGSGTKLEIKR
